In patent US5550213A, “Inhibitors of urokinase plasminogen activator” (Rutgers, The State University of New Jersey, priority 1993, dated 1996):
Like-named read-outs stand apart in the source and are kept apart here. Where no end group is shown, it is not given here.

Columns and labels:
urokinase (UK) [1] = target: T1, urokinase (UK) (Homo sapiens, UniProt P00749); details: from Turpeinen et al. (PSTI), Christensen et al. (PAI-2); serpin Ki not functionally comparable to reversible inhibitors; read-out: Ki (nM) against UK, values obtained from the literature; cited from earlier work
urokinase (UK) [2] = target: T1, urokinase (UK); assay: Ki of inhibitors against urokinase, fractional enzyme activity assay (Empie and Laskowski) with chromogenic substrate S-2288; assay type: biochemical; set-up: purchased Abbott Pharmaceuticals
Experimental: Fractional enzyme activities for each inhibitor-UK interaction of the above discussed inhibitors were determined by the assay method of Empie and Laskowski (Empie, M. W. et al., Biochem. 21:2274-2284 (1982)), as adapted from Green and Work (Green, N. M. et al., Biochem. J. 54:347-352 (1953)). The concentration of UK used for these reactions was 35 nM. The reactions were carried out in Buffer C. The concentration of the chromogenic substrate used with UK in these assays (S-2288, KabiGen) was […], which is one tenth of the Km of the substrate for UK. Km was determined by a Michaelis-Menten analysis, using a 100-fold range of substrate concentration in Buffer C, and determined to be 4×10^-4 M. Ki values were calculated as the slope of a plot of [I]o /(1-a) vs. 1/a ("a" represents residual enzyme activity) using a variation of the formulas derived by Henderson (Pratt, C. W. et al., Biochem. 26:2855-2863 (1987)). […] These five mutants include the four detailed above(88, 89, 80, AND 91), and also a mutant with arginine at the P1 site of OM3TKY (P1-Arg). […] "ND" means not determined.
Ki values for the wild-type and mutant inhibitors versus urokinase were also determined by non-linear regression of the following equation: [formula]
The non-linear regression was done using the program Enzfitter, by Robin Leatherbarrow. […] Enzyme and inhibitor concentrations used were determined as mentioned above.

Substance	Ki (urokinase (UK) [1]) [nM]	Ki (urokinase (UK) [2]; non-linear regression with Enzfitter, read-out: Ki (nM), Ki VALUES OBTAINED BY NON-LINEAR REGRESSION FOR INHIBITORS AGAINST UK) [nM]	inhibitory activity against UK (urokinase (UK) [2]; statement on Table 5)
PSTI: native Pancreatic Secretory Trypsin Inhibitor, a Kazal-type inhibitor from humans (DSLGREAKCYNELNGCTKIYDPVCGTDGNTYPNECVLCFENRKRQTSILIQKSGPC; ends and bridges not checked; cysteine pairing not given here; UniProt P00995 24-79, looked up) [reference compound]	300		
P1-Arg: mutant with arginine at the P1 site of OM3TKY (VDCSEYPKPACTREYRPLCGSDNKTYGNKCNFCNAVVESNGTLTLSHFGKC)		1790 ± 415	virtually no inhibitory activity
